Laboratory results taken from PMC5059438.

Target: Ops*, an active form of opsin which is similar to metarhodopsin II (UniProt P02699)

molar mass of functionally reconstituted scramblase, from the fit of p(≥1 scramblase) versus PPR* (dithionite/NBD-PC scramblase assay on proteoliposomes): 90800 g/mol
Substance: Ops*, an active form of opsin which is similar to metarhodopsin II (from UniProt P02699 1-348) (receptor)
